# Source: patent US20080038735A1
# B1: Vk(TAR1-5) (protein)
# VL: DIQMTQSPSSLSASVGDRVTITCRASQSIFMNLLWYQQKPGKAPKLLIYNASVLQSGVPSRFSGSGSGTDFTLTISSLQPEDFATYYCQQVVWRPFTFGQGTKVEIKR
# modifications: here or on the partner: biotinylated (sites not given)
# Biological target: TNFa, P01375
# Assay: not stated (told as a known affinity); low affinity dAb, known affinity, lower bound
# Conditions: remark: other sources report otherwise
# TNFa, P01375, sequence (P01375 77-233 limits assumed): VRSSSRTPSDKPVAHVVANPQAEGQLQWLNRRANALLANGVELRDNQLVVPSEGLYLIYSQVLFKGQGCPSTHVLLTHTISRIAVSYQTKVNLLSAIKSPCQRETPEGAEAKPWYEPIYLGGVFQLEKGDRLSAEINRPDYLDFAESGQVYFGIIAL
binder,measurement,value
B1,Kd,> 5 µM
